± gives the uncertainty stated by the source.

The series in a line: amyloid nucleation score (Sup35N fusion, yeast selection) (log enrichment); library NNK2; higher = more nucleation; inactive = no reads after selection. In short, it runs like this:
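Nucleation score: DiMSum log enrichment of output over input reads, centred on the mode score of non-aggregating sequences. Only sequences with at least 100 input reads were kept. Reads came from Illumina sequencing of plasmid inserts before and after 7 days of growth at 30°C without adenine and uracil, in psi-negative yeast expressing Sup35N fused to peptides of 20 random codons after 24 hours of induction with 100 μM copper sulfate.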
Turning to YRRGRLSMRSVWTKGCKERM, the amyloid nucleation score entry was “inactive”.
Take YFIGGGLRVMSRWWMCALMD: the amyloid nucleation score turned out to be 3.24 ± 0.086.
Substance GILNRTRPFR yielded an amyloid nucleation score of -0.595 ± 0.28.
For the substance LTYIRMQVHLVDYDRDALG, the amyloid nucleation score is -1.32 ± 0.49.
As for EFIMTCAQVPRTFDVHSNRS, the amyloid nucleation score was found to be 6.479 ± 0.054.
Consider MAVYTRVVTLCRGKPFS, for which the amyloid nucleation score is 1.06 ± 0.35.
CTLLFTLSYSVS had an amyloid nucleation score of 4.245 ± 0.037.
Consider AAELLLSSGLVRQHAARRQY, for which the amyloid nucleation score amounted to 0.695 ± 0.26.
In turn, MELMNMV yielded an amyloid nucleation score of -0.127 ± 0.65.
As for MGSGSIFT, the amyloid nucleation score worked out at 0.287 ± 0.45.
The substance EVSHAIYRWTLEKYCWNCHV yielded an amyloid nucleation score of 0.09 ± 0.24.
As to YIPIYMGWTGRNRTVMH, the amyloid nucleation score result was “inactive”.
Then KCEYGLSVKYCVGQTGGN, with 1.17 ± 0.48; and IIISYMFKHSWIKKGRHKLV, with 0.597 ± 0.5.
Next, TVFWSNLVRVPCRSDTSQYD: 0.148 ± 1; GVYLGSPSYVDLSVALFSIV: 0.073 ± 0.29.
Then SRIFVRYTLAKLVDFSCPES, with 0.61 ± 0.46.
LRTYYPRNVGA came in with an amyloid nucleation score of -0.117 ± 0.5.
Next, AFYGL: “inactive”.
Substance KDNSTPRIGASDEIDVVLAF registered an amyloid nucleation score of 0.078 ± 0.77.
Turning to YSVYKTLA, the amyloid nucleation score is -1.51 ± 0.78.
With QGLCRV, the amyloid nucleation score worked out at 4 ± 0.069.
PWYLRVSEHHKPWEPENWG: the amyloid nucleation score was determined as 0.552 ± 0.32.
In the case of RLTLVNRAGCIVCNGQGCLQ, the amyloid nucleation score was found to be 9.245 ± 0.069.
Consider FCPFWDSWWGKPCRPAIDSA, for which the amyloid nucleation score came out at 0.683 ± 0.74.
Next, TTSVTGQC: -1.09 ± 0.55; PFPSPSDSGTVAA: 0.737 ± 0.54.
Next, IVWSNMTIQQSTSSVY: -0.25 ± 0.25; GPKPGDVSYVYKSCRTHNSP: 0.53 ± 0.29.
As to LYWAFTTISLYLTSTFVSLM, the amyloid nucleation score was -1.66 ± 1.1.
In turn, TTHLLFLFLALKNNPRTILT displayed an amyloid nucleation score of -0.294 ± 1.1.
The substance KLSNLSHDSYMLENALFALT gave an amyloid nucleation score of 2.52 ± 0.063.
Then GWIVSLFVV, with 0.769 ± 0.46; and EVTILVGKGERLKRTYCSR, with 0.329 ± 0.2.
Then MTSYAWMNTSSM, with “inactive”.
Turning to QIACDCNLGGKWFTDMCYFA, the amyloid nucleation score was -0.94 ± 0.55.
Next, LPHCL: 1.36 ± 0.24.
In turn, WNMYNRIWFLGHKLLWGSPT returned an amyloid nucleation score of -0.414 ± 0.76.
As to RLKTDRLAMIPVRPKRFPGP, the amyloid nucleation score worked out at 0.191 ± 0.63.
As to FHGRSATGISRLYLKRGCSG, the amyloid nucleation score came to 0.761 ± 0.47.
Then SYTGS, with -0.019 ± 0.34; and ALRDFS, with 0.465 ± 0.8.
As to LDDSYPCFASIITI, the amyloid nucleation score was found to be 1.01 ± 0.41.
Turning to LMDQSTFNRVKYVGHWVVSG, the amyloid nucleation score is 1.74 ± 0.087.
Next, NRNLDGFLPWNVHEAVGL: -0.003 ± 0.42; FDDRMCLCTIKQSK: -1 ± 0.78; IDAELLGWFFPEDGFHFSAV: -1.32 ± 1.1.
Turning to SRFLDGSLLPKTNGLSQEMV, the amyloid nucleation score turned out to be 0.122 ± 1.1.
Then WGIWFKPALFRNLYTIFAWL, with “inactive”; and LASFFCFGIINTAC, with -0.019 ± 0.17; and HFSDVSSEVGVIHCSMLGSN, with -0.107 ± 0.49.
Next, LVFLIETRNFFRLHLSGCWA: -1.27 ± 0.75.
Next, RVTRG: “inactive”.
Turning to RELQNLFPHCILWSIIMKPN, the amyloid nucleation score is -1.49 ± 1.1.
CSFVLVFVIIQ returned an amyloid nucleation score of 3.49 ± 0.12.
LTRVNWCLPKAGSLKQF returned an amyloid nucleation score of -0.06 ± 0.79.
Turning to FYWNEICFNSSKE, the amyloid nucleation score result is “inactive”.
HYSRD yielded an amyloid nucleation score of -0.593 ± 1.1.
In the case of LRHCVYVYSATSRWIC, the amyloid nucleation score stood at 0.674 ± 0.43.
For the substance IGSWSTA, the amyloid nucleation score worked out at 0.367 ± 0.36.
For RDVLTDNQNAIRLLRGVSAY, the amyloid nucleation score came out at 0.298 ± 0.19.
For YHVRIGSGRAVSLHV, the amyloid nucleation score is 0.382 ± 0.5.
Take STQRIEDIEIVEQKCPACIG: the amyloid nucleation score turned out to be 0.754 ± 0.3.
The substance TFDFDNVAVYYALSGTGDSW returned an amyloid nucleation score of -0.516 ± 0.34.
With DGPIPLLSGMGHGGRYLWCV, the amyloid nucleation score was 1.01 ± 0.18.
Then FPIYFFA, with “inactive”; and TPYGFSFRTRYMKQADLALS, with -0.315 ± 0.33; and QLWMTQTRTPSSKIRSKP, with 0.641 ± 0.74.
In the case of RRFLYPVGRGICMENADPFG, the amyloid nucleation score came to 1.29 ± 0.44.
GLIGCAMSVVPHEELCVRTC yielded an amyloid nucleation score of 1.07 ± 0.29.
On to RITFVILYDAFGEDMDLVSL, for which the amyloid nucleation score was found to be 2.09 ± 0.12.
As to RYFYLLWLIVTWIYSRVVIH, the amyloid nucleation score entry is “inactive”.
The substance WHLVGRRSID showed an amyloid nucleation score of -0.336 ± 0.76.
Consider LLFPLGISHAYMGRFFFRMV, for which the amyloid nucleation score was -0.266 ± 1.1.
In turn, TVVGSLSVVF gave an amyloid nucleation score of 1.47 ± 0.38.
Take IWFSWAVCFMITFHSHTHWW: the amyloid nucleation score came to 0.598 ± 0.57.
For NSVTNNIRSWIPHLDKGYGG, the amyloid nucleation score is -0.487 ± 1.1.
Regarding YFYLFYCEIRVPTELYLNMP, the amyloid nucleation score came to 3.15 ± 0.06.
Next, SLNISCYWHLKFVMRAWHTW: -0.465 ± 1.
LCNGGWIIRRADVSGVTNVE displayed an amyloid nucleation score of -0.09 ± 0.24.
Then SEANKSGVSVGWCDCAVGCV, with 0.734 ± 0.21.
In turn, FRYLDRSNYRKSCGYIITLT yielded an amyloid nucleation score of -0.74 ± 1.1.
Next, CLNRLFHTPGDGDNYCRAIL: 0.34 ± 0.5.
In turn, VMYLLNFNIMGGLSRIIGGI gave an amyloid nucleation score of 6.47 ± 0.049.
Next, YRPNN: 2.43 ± 0.14.
Turning to RFLKNRMLNCKVIGIWWKCY, the amyloid nucleation score entry was “inactive”.
For the substance ISLSIWQPRNSDGWKQEPAP, the amyloid nucleation score was found to be 2.41 ± 0.24.
With RNIRWPAHISAGDKGVSGEF, the amyloid nucleation score is -0.65 ± 1.
Consider WLICQSIRLLAKNFLLSDRV, for which the amyloid nucleation score was 0.019 ± 1.1.
Substance TSRKGNSSHL came in with an amyloid nucleation score of -1.54 ± 0.75.
As for QQGYVTLSNFCGRA, the amyloid nucleation score was -0.292 ± 0.5.
Substance VAESVSVT came in with an amyloid nucleation score of 0.6 ± 0.24.
On to GLTYKSDWSSFRSVYL, for which the amyloid nucleation score was -0.771 ± 0.55.
Next, NDRHLRWPFCPCYQVRLCIT: “inactive”; FNDRHVCHREKFSRELGFCS: -0.479 ± 1.
For the substance RYFSISAFMVMGTVNVGGYW, the amyloid nucleation score was found to be 4.18 ± 0.045.
Take LKMIWIYSFCLILVLYLRQA: the amyloid nucleation score was found to be 0.148 ± 1.
WGHFAMVRA showed an amyloid nucleation score of 0.426 ± 0.8.
Substance ASQRTVA displayed an amyloid nucleation score of 1.6 ± 0.36.
The substance RYTWWWHSLFMSDSVAMNSA gave an amyloid nucleation score of -0.334 ± 0.42.
RGKFHCFL had an amyloid nucleation score of -0.599 ± 0.41.
The substance LADQSYKPAWLFPGSTSVLV gave an amyloid nucleation score of 0.078 ± 0.74.
Substance RHQCIIWDIISLPGIWLCRR displayed an amyloid nucleation score of 1.13 ± 0.23.
Turning to IVCPFKT, the amyloid nucleation score is -1.35 ± 0.78.
As to IRANGDKSVYM, the amyloid nucleation score came out at 2.21 ± 0.076.
Take MSARECWTIRFPYRVIVWEV: the amyloid nucleation score turned out to be 0.214 ± 0.74.
The substance CRWTASAIHARGRVSDRMRD returned an amyloid nucleation score of 0.05 ± 0.29.
INYSFWRSHSSP displayed an amyloid nucleation score of 4.42 ± 0.099.
Then FFQLSYNIQASSNNLMASVS, with “inactive”; and LYGHGSILVRTNGGISFRRN, with -1.02 ± 1.1.
Turning to CLCCKLVYASNIEIGDYMGF, the amyloid nucleation score was found to be 6.216 ± 0.034.
Turning to NSNLLNTLFWVVT, the amyloid nucleation score came out at 4.03 ± 0.13.
As for HISVISTNEFTRIRASAAHA, the amyloid nucleation score turned out to be 1.38 ± 0.67.
The substance RVLADVKRYRECQTRCRDAW yielded an amyloid nucleation score of 1.04 ± 0.34.
As for YLFFKFWNAVCDLIHNTNLY, the amyloid nucleation score entry was “inactive”.
Consider FWFMVCLIAG, for which the amyloid nucleation score is -0.223 ± 0.48.
Regarding GKCYFA, the amyloid nucleation score was -1.87 ± 0.62.
TDCFQFS came in with an amyloid nucleation score of 0.713 ± 0.58.
For the substance SFGNYRSVWYVTDVFAHIHL, the amyloid nucleation score is 8.335 ± 0.056.
For TLVHSKF, the amyloid nucleation score amounted to 3.01 ± 0.089.
In turn, WVELVCPYSTYLLSFIASLS displayed an amyloid nucleation score of 0.278 ± 0.54.
The substance EGFHGRMCHEHGKVLKAID displayed an amyloid nucleation score of 0.178 ± 0.24.
In the case of VNFLGWSLVGKCRFQFWTVR, the amyloid nucleation score entry was “inactive”.
STSSSLAR displayed an amyloid nucleation score of 0.867 ± 0.22.
TNCSIMGTFSYFNDCSLGGT came in with an amyloid nucleation score of 5.247 ± 0.051.
Then FTNLVTLYVYCYSFWYGILN, with -0.232 ± 1.1.
On to ISVCITILSYVRNECWFRGD, for which the amyloid nucleation score is -0.432 ± 0.24.
In turn, ILISLESSPISGMKCVLQRF gave an amyloid nucleation score of 2.85 ± 0.12.
Then FNLLARMIVYGIVLSQGKTG, with -0.01 ± 0.63.
For YEFCSTRQRSELGGK, the amyloid nucleation score amounted to 5.24 ± 0.069.
SGSIVRGLCVVFSCVFKGSL came in with an amyloid nucleation score of -0.874 ± 0.56.
Consider LTGMVTCATI, for which the amyloid nucleation score was 0.53 ± 0.36.
Then SLWTYRARTKGCHYVHSVLM, with 0.164 ± 1.1.
As to HFNSLVSGQYMWSSGKSLVP, the amyloid nucleation score worked out at 4.01 ± 0.061.
INWLKYLAFLILLDMFNSFG registered an amyloid nucleation score of 0.263 ± 0.64.
LDTARVNGDSYWSL returned an amyloid nucleation score of 3.57 ± 0.11.
On to SIFRLDDEGDPVMREPLM, for which the amyloid nucleation score amounted to 1.22 ± 0.59.
Consider LTACRVLRLLKCSQRE, for which the amyloid nucleation score was 4.68 ± 0.075.
Next, TVNCLGIFSRFLCLNWASWL: 3.53 ± 0.15.
For the substance VTRKVLGYCRVW, the amyloid nucleation score was found to be 0.472 ± 0.8.
